Measurements published in the nanobody polyreactivity screen of Harvey et al. (2022).

Test: yeast display, Sf9 membrane polyspecificity reagent, FACS + sequencing; frameworks hold sequencing errors
Outline: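 A synthetic nanobody library was expressed on Saccharomyces cerevisiae BJ5465 by galactose induction for 36–48 hours. The library was stained for 1 hour at 4 °C with 10% biotinylated, detergent-solubilized Sf9 membrane reagent and enriched with streptavidin microbeads before FACS. Low and high (top ~1%) gates were set on anti-HA fluorescence for expression and streptavidin fluorescence for reagent binding, and each polyreactivity label reflects the gate of origin.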

Sequence	polyreactivity (PSR sort gate)
QVQLVESGGGLVHAGGSLRLSCAAYGSIFNYYAMGWYRQAPGKERVFVADISGSGSSTYYADSVKGRFTISRDNAKNTFYLQKNSLKPEDTAVYYCNAEYYWGVGYYPYSDYGYWGQGTQVTVSS	low polyreactivity
QVQLVESGGGLVHAGGSLRLSCASSGFTYSQYVMGWYRQAPGKERELVASITGNGGSTRYADSVKGRFTISRDNANKTVYLQMNCLKPEDTAVYYCDTRVKFSTSYWLYYWGQGTQVTVSS	high polyreactivity
QVQLVESGGGLVHAGGSLRLSCASSGRTFAYSAMGWYRQAPGIERELVATITSAGSTNYADSVKGRFTISRDNAKNTVYLQMNSLKPEDTAVYYCNRRVWGSSRLKYNYWGQGTQVTVSS	high polyreactivity
QVQLVESGGGLVHAGGSLRLSCASSGSTFAQYALGWYRPAPGKDREFVAAITRGGGRTYYADSVNGRFTISRDNAKYSVYLQMNSLKPEVTAVYYCNAVYRYYPFDYWGQGTQVTVSS	high polyreactivity
QVQLVESGGGLVHAGGSLRLSCASSGSTFVLYAMGWYRQAPGKERELVAVISWSGGSTYYADSVKGRFTISRDNAKNTVYLQLYSLKPEDTAVYYCAKRYRVSYYPYADPYGYWGQGTQVNVSS	low polyreactivity
QVQLVESGGGLVHAGGSLRLSCSASGSTFGPYAMGWYRQAPGKERELVAAISSRGARTYYADSVKGRFTISRDNAKNTVYLQMNSLKPEDTAVYYCANTYHGTAYDYWGQGTQVTVSS	high polyreactivity
QVQLVESGGGLVHAGGSLRLTCAASGSISSFYAMGWYRQEPGKERELVAGITSGGSTNYADSVKGRFTISRDNAKNTVYLQMNSLKAEDTAVYYCAAVYKCAGTHFDVFVKEFDYWGQGTQVTVSS	low polyreactivity
QVQLVESGGGLVHEGGSLRLIFAASGRIFGPNHMGWYRQAPGKERELVAAITDSCDITYYADSVKGRFTISRDNAKNTVYLQMNSLKPQDTAVYYCAADHTYENEYWGQGTQVNVSS	low polyreactivity
QVQLVESGGGLVHSGGSLRLSCAASGSIFDYYAMGLYRQAPGKERELVAAISWRGGTTYYADSVKGRFTISRDNANNTVFLQMNRLKPEYTAVYYCNADKRFRRYDYWGQGNQVTVSS	high polyreactivity
QVQLVESGGGLVKAGGSLRLRGAASGSIFGRYAMGWYRQAPGKERELVAAISKNGGSTYYADSVKGRFTISRDNAKNTVYLQMNILKPEDTAVYYCNTVRYSGNYRDQEGDYWGQGTQVTVSS	high polyreactivity
QVQLVESGGGLVKAGGSLRLSCAASGFIFRTYAMGWYRQAPRKERELVAAITGRGGTTYYADSVKGRFTISRDHAKNTVYLQMNSLKAEDTAVYYCADRSRDYNYNPYDYWGLGTQVTVSS	high polyreactivity
QVQLVESGGGLVKAGGSLRLSCAASGIIFSFYTMGWYRQAPGKQRELVAAITWSGGSTYYADSVKGRFTISRDNAKNTVYLQMNSLKPEDTAVYFCNARYPWRKRSQGYSWGQGTQVTVSS	low polyreactivity
QVQLVESGGGLVKAGGSLRLSCAASGITFLYYAMACYRQAPGKERELVAAISTSGGSTYYSDSVKGRFTISRDNAKNTVYLQMNSLKPEDTAVYYCAKSVGVGGEDRVGSWGQGTQVTVSS	low polyreactivity
QVQLVESGGGLVKAGGSLRLSCAASGLTLPANAMGWYRQAPGKEREFVAAISVGGDTTSYADSVKGRFTISRDNAKNTVYLQMNSLKPEDTAVYYCAADEIHDPRTYRGSAGDYWGQGTQVTVSS	low polyreactivity
QVQLVESGGGLVKAGGSLRLSCAASGRIFNWYAMGWYRQAPGKEREFVAAITFSGGSTYYADSVKGRFTISRDNAKNTVYLQMNSLKPEDTAVYYCAAEIYFFVSYDYWGQGTQVTVSS	low polyreactivity
QVQLVESGGGLVKAGGSLRLSCAASGRIFVFNAMGWYRQAPGKERELVAAITSAGSTYYADSVKGRFTISRDNAKNTVYLQMNSLIPEDTAVYYCAAGSRRYRDDYWGQGTQVNVSS	low polyreactivity

Sequence	polyreactivity (PSR sort gate)
QVQLVESGGGLVKAGGSLRLSCAASGRTFALYAMGWYRLAPGKERELVAGITFRGGSTYYADSVKGRFRISRDNAKNTVYLQMNSLKPEDTAVYYCAAERWRWYYSWTMDYWGQGTQVTVSS	high polyreactivity
QVQLVESGGGLVKAGGSLRLSCAASGRTFRYNAMGWYRQPPGKERELVAVINSNGGSTYYADSVKGRFTISRDNAKNTVYLQMNSLKPEDTAVYYCAADYIRIQEYDYWGQGTQVTVSS	low polyreactivity
QVQLVESGGGLVKAGGSLRLSCAASGSIFPFYAMGSYRQAPGKERELVATISWSGGRTYYADSVKGRFTISRDNAKNTVYLQMNSLKPEDTAVYYCAAGSYHYPNAYYYWGQGTQVTVSS	high polyreactivity
QVQLVESGGGLVKAGGSLRLSCAASGSIFRYYAMGWYRQAPGKERELVASITNGGSTNYADSVKGRFTISRDNAKNTVYLQMNSLKPEDTAVYYCAARYLYYTPPPRRYYYWAQGTQVTVSS	high polyreactivity
QVQLVESGGGLVKAGGSLRLSCAASGSSLRYNAMGWYRQAPGKERELVAAISWGGGRTHYADSVKGRFTISRDNAKNSVYLQMNSLKPEDTAVYYCNGVSVRYLYYYWGQGTQVTVSS	high polyreactivity
QVQLVESGGGLVKAGGSLRLSCAASGSTFSRNTMGWYRQAPGKERELVAAITKSAVSTYYADTVTGRFTISRDNAKNTDYLEMNSLKPEDTAVYYSAKVYRTSTSKAYDYWGQGTKVTVSS	high polyreactivity
QVQLVESGGGLVKAGGSLRLSCAASGSTFSRYAKGWYRQAPGKEREFVAAISKSGGGTYYADSVKGRFTISRDNAKNTVYLQMNSMKPEETAVYYCARRVRYKHYDYWGQGSQVTVSS	high polyreactivity
QVQLVESGGGLVKAGGSLRLSCAASGSTLDPNVMGWYRQAPGKERELVAAITSGGSTYYADSVKGRFTISRDNAKNTVYLQMNSLKPEDTAVYYCAADSHGHVFYSWYDYWGQGTQVTVSS	low polyreactivity
QVQLVESGGGLVKAGGSLRLSCAAYGFTIVYYAMGWYIQEHGKERELVAAISATGGRTYYADSVKGRFTISRDNAKNTVYLQMNSLKPEDTAVYYCATRRRVLYGYDYWGQGTQVTVSS	high polyreactivity
QVQLVESGGGLVKAGGSLRLSCCASGFTFTGYAMGWYRQAPGKEWELVAAITRGGGSTYYADSVKGRFTISRDNAKNTVYLQMNSLKREDTAVYYCAAQGSRLIRISSPYYGHDYWGQGTQVTVSS	low polyreactivity
QVQLVESGGGLVKEGGSLRLSCAASGSIFLQYAMGWYRQAPGKERELVAGISLRGCSTYYADSVKGRFTISRHNAKNTVYLQLNSLKPEDTAVYYCAADVIVTVETYTSGPSFTEYDYWGQGTQVTVSS	low polyreactivity
QVQLVESGGGLVLAGGILRLSCAASGSTFYAYAMGWYRQAPGKERELVAAIDSGGSTYYADSVKGRFTISRDNAKNTVYLQMNSLKPEDTAVYYCAVRHRYTRAYWGRDYWGQGSQVTVSS	low polyreactivity
QVQLVESGGGLVLAGGRLRLSCAASGFTFGPYAMGWSRQAPGKERELVAAISQSGGRTSYAVSVKGRFTISRDNGKNTVYLQMNSLKPEDTAVYYCAKRANGYRSIYRMDYWGQGTQVTVSS	high polyreactivity
QVQLVESGGGLVLAGGSLRLSCAASGFTFPHYAMGWYRQAPGKERELVAVISWSGSSTYYADSVKGRFTISRDNAKNTVYLQMNSLKPEDTAVYYCNTRKLYQVDYDYWGQGTQVTVSS	high polyreactivity
QVQLVESGGGLVLAGGSLRLSCAASGGIFYGYAMGWYREAPGKEREMVAAISSTGGRTYYADSVKGRFTISRDNAKNTVYLQMNSLKPEETAVYYCAAEDFTRQFEYWGQGTQVTVSS	low polyreactivity
